Target: Cell membrane human LILRB2 on human primary monocytes from healthy donors (human, UniProt Q8N423 22-597)
Test: cell-based or functional assay

Sequence of Cell membrane human LILRB2 on human primary monocytes from healthy donors (Q8N423 22-597): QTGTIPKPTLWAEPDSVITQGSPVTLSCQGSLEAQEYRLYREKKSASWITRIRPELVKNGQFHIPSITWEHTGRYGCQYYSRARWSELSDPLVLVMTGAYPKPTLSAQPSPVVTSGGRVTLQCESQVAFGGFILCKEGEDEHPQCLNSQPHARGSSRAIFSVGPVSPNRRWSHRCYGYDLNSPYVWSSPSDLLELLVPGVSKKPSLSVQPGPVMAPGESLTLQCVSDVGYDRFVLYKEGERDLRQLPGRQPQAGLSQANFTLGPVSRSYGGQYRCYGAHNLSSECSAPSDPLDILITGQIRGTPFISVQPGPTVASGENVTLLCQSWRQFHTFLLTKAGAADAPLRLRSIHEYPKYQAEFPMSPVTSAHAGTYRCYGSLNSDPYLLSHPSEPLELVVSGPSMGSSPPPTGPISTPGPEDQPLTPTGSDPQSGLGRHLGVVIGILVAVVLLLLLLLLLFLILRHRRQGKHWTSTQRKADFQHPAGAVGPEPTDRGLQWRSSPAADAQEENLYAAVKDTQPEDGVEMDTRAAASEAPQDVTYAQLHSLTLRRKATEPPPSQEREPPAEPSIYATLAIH

B1: 043c (antibody, V domains shown)
VH: QVQLQQSGAELAKPGASVKLSCKASGYTFTSYWMYWVKQRPGQGLEWIGHINPSSGYTKYNQKFKDKATLTADKSSSTAYMQLSSLTYEDSAVYYCARDPNWDNYWGQGTTLTVSS
VL: DIVMTQSHKFMSTSVGDRVSITCKASQDVSIAVAWYQQKPGQSPKLLIYSASYRYTGVPDRFTGSGSGTDFTFTISSVQAEDLAVYYCQQHYSTPYTFGGGTKLEIK
notes: Human IgG4 chimeric antibody with S228P mutation at the Fc region; also called chimeric antibody 043c; parental antibody 043c
B1 was tested, and the “Relative cytokine level, CCL2/JE/MCP-1 (DC differentiation assay, Soluble antibody, Luminex)” value was 2.36 fold of hIgG4 iso, the “Relative cytokine level, CCL3/MIP-1 alpha (DC differentiation assay, Pre-coat antibody, Luminex)” value was > 5 fold of hIgG4 iso and the “Relative cytokine level, CCL3/MIP-1 alpha (DC differentiation assay, Soluble antibody, Luminex)” value was 5.79 fold of hIgG4 iso. For the same binder, the “Relative cytokine level, CCL20/MIP-3 alpha (DC differentiation assay, Pre-coat antibody, Luminex)” value was 1.75 fold of hIgG4 iso, the “Relative cytokine level, CCL20/MIP-3 alpha (DC differentiation assay, Soluble antibody, Luminex)” value was 1.88 fold of hIgG4 iso and the “Relative cytokine level, CCL22/MDC (DC differentiation assay, Pre-coat antibody, Luminex)” value was 2.61 fold of hIgG4 iso. For the same binder, the “Relative cytokine level, CCL22/MDC (DC differentiation assay, Soluble antibody, Luminex)” value was 2.03 fold of hIgG4 iso, the “Relative cytokine level, CCL23/MPIF-1 (DC differentiation assay, Pre-coat antibody, Luminex)” value was 0.48 fold of hIgG4 iso and the “Relative cytokine level, CCL23/MPIF-1 (DC differentiation assay, Soluble antibody, Luminex)” value was 0.73 fold of hIgG4 iso. For the same binder, the “Relative cytokine level, IFN-beta (DC differentiation assay, Pre-coat antibody, Luminex)” value was 3.39 fold of hIgG4 iso, the “Relative cytokine level, IFN-beta (DC differentiation assay, Soluble antibody, Luminex)” value was 7.24 fold of hIgG4 iso and the “Relative cytokine level, IL6 (DC differentiation assay, Soluble antibody, Luminex)” value was 1.93 fold of hIgG4 iso. For the same binder, the “Relative cytokine level, IL-1 alpha/IL-1F1 (DC differentiation assay, Pre-coat antibody, Luminex)” value was 1.71 fold of hIgG4 iso, the “Relative cytokine level, IL-1 alpha/IL-1F1 (DC differentiation assay, Soluble antibody, Luminex)” value was 1.71 fold of hIgG4 iso and the “Relative cytokine level, IL-6 (DC differentiation assay, Pre-coat antibody, Luminex)” value was 1.61 fold of hIgG4 iso. For the same binder, the “Relative cytokine level, IL-8/CXCL8 (DC differentiation assay, Soluble antibody, Luminex)” value was 1.65 fold of hIgG4 iso, the “Relative cytokine level, IL-10 (DC differentiation assay, Pre-coat antibody, Luminex)” value was 2.16 fold of hIgG4 iso and the “Relative cytokine level, IL-10 (DC differentiation assay, Soluble antibody, Luminex)” value was 1.69 fold of hIgG4 iso. For the same binder, the “Relative cytokine level, TNFα (DC differentiation assay, Pre-coat antibody, Luminex)” value was 5.38 fold of hIgG4 iso, the “Relative cytokine level, TNFα (DC differentiation assay, Soluble antibody, Luminex)” value was 4.71 fold of hIgG4 iso and the “Relative cytokine level, VEGF (DC differentiation assay, Pre-coat antibody, Luminex)” value was 1.67 fold of hIgG4 iso. For the same binder, the “Relative cytokine level, VEGF (DC differentiation assay, Soluble antibody, Luminex)” value was 1.43 fold of hIgG4 iso.

— patent US20260008847A1 (ELPISCIENCE SUZHOU BIOPHARMA, published 2026)
